Laboratory results as given in PMC8052441, “Structural insight into the molecular mechanism of p53-mediated mitochondrial apoptosis” (Nature Communications, 2021).

How the values were obtained:
[1] = biological target: T1, p53-DT (human p53 DBD and tetramerization domain, amino acids 92-360) (human, UniProt P04637 92-360); assay: ITC; p53 protein (100 µM) titrated into 10–30 µM BCL-xL or BCL-2; 25 °C; 50 mM Tris pH 7.0, 40 mM NaCl, 1 mM TCEP; details: both partners purified
T1 construct: human p53, DBD and tetramerization domain, amino acids 92-360; Tetramer in solution by gel filtration and cross-linking; also called wild-type p53-DT; not shown: His6, N-terminal, cleaved
T1 sequence (P04637 92-360): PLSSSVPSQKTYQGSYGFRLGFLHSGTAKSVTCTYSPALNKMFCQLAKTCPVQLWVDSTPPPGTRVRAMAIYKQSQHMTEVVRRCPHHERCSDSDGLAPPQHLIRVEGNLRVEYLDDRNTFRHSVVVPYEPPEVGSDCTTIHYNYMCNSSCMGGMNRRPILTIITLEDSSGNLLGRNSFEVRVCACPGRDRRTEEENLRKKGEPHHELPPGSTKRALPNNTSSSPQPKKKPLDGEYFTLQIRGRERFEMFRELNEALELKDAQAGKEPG

[2] = biological target: T2, p53-DBD (human p53 DNA-binding domain, amino acids 92-292) (human, UniProt P04637 92-292); assay: as above; details: both partners purified
T2 construct: Cloned into pMAL-c5x; In the crystal (PDB 6LHD) this stretch stood fused to BCL-xL; the rows of the structure use m1 and m3 for the two halves; also called p53-A; p53-B; source: E. coli BL21 (DE3), purified (amylose, PreScission, Mono S)
T2 sequence (P04637 92-292): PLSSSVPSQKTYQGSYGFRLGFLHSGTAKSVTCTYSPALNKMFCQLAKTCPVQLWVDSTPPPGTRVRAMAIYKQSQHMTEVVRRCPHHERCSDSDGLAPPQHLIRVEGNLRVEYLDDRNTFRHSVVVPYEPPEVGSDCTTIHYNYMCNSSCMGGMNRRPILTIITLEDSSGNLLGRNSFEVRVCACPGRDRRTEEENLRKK

B1: BCL-xL (human, lacking the α1-α2 loop 45-84 and the 22 C-terminal residues), His-tagged (domain or fragment, UniProt Q07817-1 1-211, looked up)
chain: MSQSNRELVVDFLSYKLSQKGYSWSQFSDVEENRTEAPEGTESEAVKQALREAGDEFELRYRRAFSDLTSQLHITPGTAYQSFEQVVNELFRDGVNWGRIVAFFSFGGALCVESVDKEMQVLVSRIAAWMATYLNDHLEPWIQENGGWDTFVELYGNNAAAESRKGQERFN
notes: human BCL-xL lacking the disordered α1-α2 loop (amino acids 45-84) and the 22 C-terminal residues (transmembrane region); Cloned into pET-28a; also called BCL-xL-C; BCL-xL-D
Work on B1 yielded a Kd [1] of 4.1 µM and a Kd [2] of 37.4 µM.
